# IntAct's records for PubMed 16882004
# B1: Neuronal cell adhesion molecule (Mus musculus), Q810U4 (parent)
# chain: MQLKIMPKKKHLSAGGVPLILFLCQMISALDVPLDLVQPPTITQQSPKDYIIDPRENIVIQCEAKGKPPPSFSWTRNGTHFDIDKDPLVTMKPGSGTLVINIMSEGKAETYEGVYQCTARNERGAAVSNNIVVRPSRSPLWTKERLEPIVLQNGQSLVLPCRPPIGLPPAIIFWMDNSFQRLPQSERVSQGLNGDLYFSNVLPEDTREDYICYARFNHTQTIQQKQPISLKVISVDELNDTIAANLSDTEFYGAKSSKERPPTFLTPEGNESHKEELRGNVLSLECIAEGLPTPIIYWIKEDGMLPANRTFYRNFKKTLQITHVSEADSGNYQCIAKNALGAVHHTISVTVKAAPYWIVAPQNLVLSPGENGTLICRANGNPKPRISWLTNGVPIEIALDDPSRKIDGDTIIFSNVQESSSAVYQCNASNKYGYLLANAFVNVLAEPPRILTSANTLYQVIANRPALLDCAFFGSPMPTIEWFKGTKGSALHEDIYVLHDNGTLEIPVAQKDSTGTYTCVARNKLGMAKNEVHLEIKDPTRIIKQPEYAVVQRGSKVSFECRVKHDHTLIPTIMWLKDNGELPNDERFSTDKDHLVVSDVKDDDGGTYTCTANTTLDSASASAVLRVVAPTPTPAPIYDVPNPPFDLELTNQLDKSVQLTWTPGDDNNSPITKFIIEYEDAMHDAGLWRHQAEVSGTQTTAQLKLSPYVNYSFRVMAENSIGRSMPSEASEQYLTKAAEPDQNPMAVEGLGTEPDNLVITWKPLNGFQSNGPGLQYKVSWRQKDGDDEWTSVVVANVSKYIVSGTPTFVPYLIKVQALNDVGFAPEPAAVMGHSGEDLPMVAPGNVRVSVVNSTLAEVHWDPVPPKSVRGHLQGYRIYYWKTQSSSKRNRRHIEKKILTFQGTKTHGMLPGLQPYSHYALNVRVVNGKGEGPASTDRGFHTPEGVPSAPSSLKIVNPTLDSLTLEWDPPSHPNGILTEYILQYQPINSTHELGPLVDLKIPANKTRWTLKNLNFSTRYKFYFYAQTSVGPGSQITEEAITTVDEAGIPPPDVGAGKGKEEWRKEIVNGSRSFFGLKGLMPGTAYKVRVGAEGDSGFVSSEDVFETGPAMASRQVDIATQGWFIGLMCAVALLILILLIVCFIRRNKGGKYPVKEKEDAHADPEIQPMKEDDGTFGEYSDAEDHKPLKKGSRTPSDRTVKKEDSDDSLVDYGEGVNGQFNEDGSFIGQYSGKKEKEPAEGNESSEAPSPVNAMNSFV
# Variants of: B1
# Settings: with dlg1_mouse Dlg1, Q811D0
# Chain of dlg1_mouse Dlg1, Q811D0 (Q811D0 whole entry): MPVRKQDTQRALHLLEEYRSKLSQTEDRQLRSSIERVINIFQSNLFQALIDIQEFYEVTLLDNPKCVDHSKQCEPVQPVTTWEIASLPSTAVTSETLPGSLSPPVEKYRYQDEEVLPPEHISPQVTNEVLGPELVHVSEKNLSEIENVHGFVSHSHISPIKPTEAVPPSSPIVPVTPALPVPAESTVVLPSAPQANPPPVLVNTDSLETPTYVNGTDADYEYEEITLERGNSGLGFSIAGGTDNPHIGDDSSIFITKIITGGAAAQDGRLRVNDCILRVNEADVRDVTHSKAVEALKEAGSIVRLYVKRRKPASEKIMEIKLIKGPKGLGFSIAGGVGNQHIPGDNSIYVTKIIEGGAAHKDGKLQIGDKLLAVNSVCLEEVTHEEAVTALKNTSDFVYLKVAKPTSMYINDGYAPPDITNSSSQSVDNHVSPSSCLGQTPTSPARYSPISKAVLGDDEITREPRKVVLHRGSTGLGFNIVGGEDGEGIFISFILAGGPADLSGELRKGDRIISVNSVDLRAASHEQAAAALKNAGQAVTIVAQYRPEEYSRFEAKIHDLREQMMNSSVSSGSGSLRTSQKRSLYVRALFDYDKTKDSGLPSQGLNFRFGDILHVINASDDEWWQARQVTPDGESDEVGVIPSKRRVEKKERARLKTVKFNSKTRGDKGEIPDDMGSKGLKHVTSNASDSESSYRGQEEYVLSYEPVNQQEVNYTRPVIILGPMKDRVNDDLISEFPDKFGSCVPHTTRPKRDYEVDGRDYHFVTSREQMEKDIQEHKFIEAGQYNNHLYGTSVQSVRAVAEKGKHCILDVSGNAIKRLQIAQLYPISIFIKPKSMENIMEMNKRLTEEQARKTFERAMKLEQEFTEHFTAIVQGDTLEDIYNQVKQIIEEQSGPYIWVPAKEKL
row,Variant,effect of a mutation on the interaction
1,V1256A,disrupting interaction
